Assay [1] has as its target human GLP-1 receptor (human) (UniProt P43220). The experiment in a line: radioligand competition ([125I]GLP-1 displaced), membranes of cells over-expressing human GLP-1R; Ki by Cheng-Prusoff.
For assay [2] the target is unchanged. The experiment in a line: cell-based or functional assay.
The target of assay [3] is T1, human GIP receptor (human) (UniProt P48546).
T1 sequence (looked up): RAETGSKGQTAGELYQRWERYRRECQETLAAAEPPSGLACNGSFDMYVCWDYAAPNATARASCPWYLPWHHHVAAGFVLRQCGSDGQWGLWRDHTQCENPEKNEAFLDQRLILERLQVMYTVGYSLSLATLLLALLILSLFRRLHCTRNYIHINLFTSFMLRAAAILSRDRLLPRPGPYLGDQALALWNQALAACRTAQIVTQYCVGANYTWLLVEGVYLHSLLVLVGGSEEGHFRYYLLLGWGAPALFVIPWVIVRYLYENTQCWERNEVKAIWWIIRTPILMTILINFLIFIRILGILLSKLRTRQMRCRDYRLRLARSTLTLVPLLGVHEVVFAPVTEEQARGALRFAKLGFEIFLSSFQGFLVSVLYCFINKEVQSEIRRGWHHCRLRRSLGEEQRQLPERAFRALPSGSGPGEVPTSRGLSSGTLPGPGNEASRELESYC
The experiment in a line: cell-based or functional assay.

The target of assay [4] is T1, human GIP receptor (human). In words: radioligand competition ([125I]GIP displaced), membranes of cells over-expressing human GIPR; Ki by Cheng-Prusoff. On the technique in general: In a radioligand displacement assay an active substance lowers the binding of a labelled ligand.

These results are taken from EP4813403A1, “USE OF GLP-1R/GIPR DOUBLE-TARGET AGONIST IN PREPARING ANIMAL DRUG” (Hangzhou Zhongmeihuadong Pharmaceutical Co., Ltd., priority 2023, dated 2025).

human GLP-1 receptor (human), sequence (P43220 24-463): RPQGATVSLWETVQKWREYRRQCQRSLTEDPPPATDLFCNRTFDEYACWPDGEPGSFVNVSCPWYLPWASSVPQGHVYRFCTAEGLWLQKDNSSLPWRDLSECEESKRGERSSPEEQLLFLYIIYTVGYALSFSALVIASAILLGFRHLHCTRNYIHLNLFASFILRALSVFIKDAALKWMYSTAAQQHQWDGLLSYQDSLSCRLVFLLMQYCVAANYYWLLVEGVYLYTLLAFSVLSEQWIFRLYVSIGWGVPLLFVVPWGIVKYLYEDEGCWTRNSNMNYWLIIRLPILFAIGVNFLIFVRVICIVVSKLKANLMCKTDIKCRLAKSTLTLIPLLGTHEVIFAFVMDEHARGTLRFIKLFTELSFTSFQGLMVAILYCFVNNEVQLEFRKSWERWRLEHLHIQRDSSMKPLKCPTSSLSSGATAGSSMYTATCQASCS

Consider YXEGTXTSDYXIXLDKQAQAEFVKWLLKGGPSSGAPPPSK (X1 is Aib; X2 is αMePhe; X3 is Aib; X4 is Aib; C-terminal primary amide) [P001], for which the Ki ratio (Ki of endogenous ligand / Ki of test compound) in assay [1] was 19.5; in assay [4], 8.82. The EC50 value (ratio: EC50 of endogenous ligand / EC50 of test compound), cAMP reporter gene (luciferase) assay, HEK293/CRE/GLP-1R cells in assay [2] was determined as 52.1. Besides, the EC50 value (ratio: EC50 of endogenous ligand / EC50 of test compound), LANCE Ultra cAMP assay, HEK293/GIPR cells in assay [3] was 7.13.

B1: P007 (peptide)
peptide: YXEGTXTSDYXIXLDKQAQAEFVKWLLKGGPSSGAPPPSK
modifications: Aib at 2; αMePhe at 6; Aib at 11; Aib at 13; K at position 24 ε-amino conjugated with ([2-(2-amino-ethoxy)-ethoxy]-acetyl)2-(γ-Glu)1-CO-(CH2)16-CO2H; C-terminal primary amide
As to B1, the Ki ratio (Ki of endogenous ligand / Ki of test compound) in assay [1] is 0.47. Besides, in assay [2], the EC50 value (ratio: EC50 of endogenous ligand / EC50 of test compound), cAMP reporter gene (luciferase) assay, HEK293/CRE/GLP-1R cells was determined as 5.84.
